Source: patent publication US20260098102A1 (NATIONAL UNIVERSITY CORPORATION KOBE UNIVERSITY, published 2026)

B1: cF44 (IgG1) (antibody, V domains shown)
VH: EVQLVESGGGLVQPGRSLKLSCAASGFTFSNYYMAWVRQAPTKGLEWVTYITTGGGSTYFRDSVKGRFTISRDNAESTLYLQMDSLRSEDTATYYCTAANYGGSYFDYWGQGVMVTVSS
VL: DVQMTQSPSNLAASPGESVSINCKASKSISKYLAWYQQKPGKANKLLIYSGSTLQSGTPSRFSGSGSGTDFTLTIRNLEPEDFGLYYCQQHNEYPPTFGAGTKLELK
notes: Human IgG1 constant region; also called cF44 IgG1 type
B2: cF44 (IgG4p) (antibody, V domains shown)
VH: B1 VH
VL: B1 VL
notes: Human IgG4p (PRO mutation) constant region; also called cF44 IgG4p type
B3: cF44 (IgG2) (antibody, V domains shown)
VH: B1 VH
VL: B1 VL
notes: Human IgG2 constant region; also called cF44 IgG2 type
B4: OSE-172 (antibody, human IgG4 S228P, kappa, V domains shown)
VH: EVQLVQSGAEVKKPGESLRISCKASGYSFTSYWVHWVRQMPGKGLEWMGNIDPSDSDTHYSPSFQGHVTLSVDKSISTAYLQLSSLKASDTAMYYCVRGGTGTLAYFAYWGQGTLVTVSS
VL: DVVMTQSPLSLPVTLGQPASISCRSSQSLVHSYGNTYLYWFQQRPGQSPRLLIYRVSNRFSGVPDRFSGSGSGTDFTLKISRVEAEDVGVYYCFQGTHVPYTFGGGTKVEIKR
notes: IgG4Pro heavy chain

Key:
human SIRPA_V1 protein [1] = biological target: T1, human SIRPA_V1 protein (human, UniProt P78324 31-504); test: cell-based ELISA on 293α cells expressing FLAG-tagged SIRPA_V1; Abs 490 normalized to FLAG tag
T1 construct: Expressed on 293α cells from pcDNA3.2 V5-DEST or pFLAG V5-DEST (FLAG-tagged) vectors; also called human SIRPA Variant 1; hSIRPA V1
T1 sequence (P78324 31-504 limits assumed): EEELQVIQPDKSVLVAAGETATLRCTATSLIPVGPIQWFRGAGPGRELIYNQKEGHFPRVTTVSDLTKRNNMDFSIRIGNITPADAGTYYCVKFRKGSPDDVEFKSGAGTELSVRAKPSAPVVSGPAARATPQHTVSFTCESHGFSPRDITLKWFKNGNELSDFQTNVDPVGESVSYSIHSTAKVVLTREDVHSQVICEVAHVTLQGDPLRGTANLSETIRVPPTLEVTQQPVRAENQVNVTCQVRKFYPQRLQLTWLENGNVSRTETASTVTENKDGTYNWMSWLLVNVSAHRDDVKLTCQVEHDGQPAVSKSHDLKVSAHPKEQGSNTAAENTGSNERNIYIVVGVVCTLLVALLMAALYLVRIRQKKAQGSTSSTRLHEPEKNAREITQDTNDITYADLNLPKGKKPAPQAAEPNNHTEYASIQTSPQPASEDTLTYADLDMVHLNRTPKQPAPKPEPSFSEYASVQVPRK
Experimental: (§1) The 293α cells [described in Example 1)-6] were prepared in a 10% FBS-containing DMEM medium to 5×10⁵ cells/mL. pFLAG V5-DEST-SIRPA_V1, pFLAG V5-DEST-SIRPA_V2, or pFLAG V5-DEST was introduced into the cells using Lipofectamine LTX (Invitrogen), followed by addition of 100 μL per well to a 96-well plate (Corning Incorporated), and cells were cultured overnight in the 10% FBS-containing DMEM medium at 37° C. under a 5% CO₂ condition. The obtained introduced cells were used for cell-based ELISA in a state that they adhered to each other. After the culture supernatant was removed, 50 μL per well of the cD13 (IgG2 and IgG4pf), cF44 (IgG1, IgG2, IgG4p, and IgG4pf), and cF63 (IgG2 and IgG4pf) antibodies prepared in Examples 3 and 4 were added to each of pFLAG V5-DEST-SIRPA_V1, pFLAG V5-DEST-SIRPA_V2, or pFLAG V5-DEST-introduced cells at final concentrations of 0 to 10,000 ng/mL, and the mixture was allowed to stand at 4° C. for one hour. Further, 50 μL per well of anti-FLAG M2 antibody (SIGMA) diluted with 5% FBS-containing PBS to a final concentration of 10,000 ng/mL was added to a well for detecting expression of each SIRPA construct, and the mixture was allowed to stand at 4° C. for one hour. The cells in the well were washed once with 5% FBS-containing PBS, followed by addition of Peroxidase AffiniPure F(ab′)₂ Fragment Goat Anti-Human IgG, Fcγ Fragment Specific (Jackson ImmunoResearch) diluted 1000-fold with 5% FBS-containing PBS, and the mixture was allowed to stand at 4° C. for one hour. The cells in the well were washed five times with 5% FBS-containing PBS, followed by addition of 100 μL per well of an OPD coloration solution [o-phenylenediamine dihydrochloride (Wako Pure Chemical Industries, Ltd.) and H₂O₂ were dissolved in an OPD solution (0.05 M trisodium citrate, 0.1 M disodium hydrogen phosphate dodecahydrate, pH 4.5) at 0.4 mg/mL and 0.6% (v/v), respectively]. A coloration reaction was performed with stirring occasionally, 100 μL per well of 1 M HCl was added to terminate the coloration reaction, and then absorbance at 490 nm was measured with a plate reader ARVO (PerkinElmer Inc.). Binding of the human chimeric anti-human SIRPA antibodies to each construct was standardized by expression of the FLAG tag.

human SIRPA_V2 protein [2] = biological target: T2, human SIRPA_V2 protein (human, UniProt P78324 31-504); test: blocking cell-based ELISA: peroxidase-labeled CD47-Fc (10,000 ng/mL) on 293α cells expressing SIRPA_V2; y axis = CD47-Fc signal in % of no antibody [ii]
T2 construct: Expressed on 293α cells from pcDNA3.2 V5-DEST or pFLAG V5-DEST (FLAG-tagged) vectors; also called human SIRPA Variant 2; ECD variant (full-length, amino acids 1 to 504)
T2 sequence (P78324 other isoform, or with tags, fused parts or gaps limits assumed): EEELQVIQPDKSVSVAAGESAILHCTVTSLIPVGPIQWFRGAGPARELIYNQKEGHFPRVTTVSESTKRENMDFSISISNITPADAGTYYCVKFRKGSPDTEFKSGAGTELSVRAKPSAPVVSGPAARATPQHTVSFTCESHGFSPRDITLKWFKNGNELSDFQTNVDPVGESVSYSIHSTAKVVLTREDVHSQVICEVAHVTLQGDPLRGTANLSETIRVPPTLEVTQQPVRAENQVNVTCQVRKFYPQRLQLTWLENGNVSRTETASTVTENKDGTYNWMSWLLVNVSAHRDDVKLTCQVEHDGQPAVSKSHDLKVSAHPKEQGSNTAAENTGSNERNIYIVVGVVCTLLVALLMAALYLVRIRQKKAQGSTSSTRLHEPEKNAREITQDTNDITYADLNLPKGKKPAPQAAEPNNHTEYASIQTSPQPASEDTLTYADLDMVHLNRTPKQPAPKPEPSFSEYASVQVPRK

human SIRPA_V1 protein [3] = biological target: T1, human SIRPA_V1 protein; test: blocking cell-based ELISA: peroxidase-labeled CD47-Fc (10,000 ng/mL) on 293α cells expressing SIRPA_V1; y axis = CD47-Fc signal in % of no antibody [i]
Experimental: After the culture supernatant of the human SIRPA and monkey SIRPA expression vector-introduced 293α cells prepared in Examples 5)-1 and 5)-2, respectively, was removed, 50 μL per well of cD13 (IgG2 and IgG4pf), cF44 (four different constant regions IgG1, IgG2, IgG4p, and IgG4pf), and cF63 (IgG2 and IgG4pf) diluted with 5% FBS-containing PBS to final concentrations of 0 to 10,000 ng/mL were added to each of pcDNA3.2 V5-DEST-SIRPA_V1, pcDNA3.2 V5-DEST-monkey SIRPA, and pcDNA3.2 V5-DEST-introduced 293α cells, immediately followed by addition of 50 μL per well of peroxidase-labeled CD47-Fc prepared in 5% FBS-containing PBS at a final concentration of 10,000 ng/ml, and the mixture was allowed to stand at 4° C. for one hour. Thereafter, the SIRPA-CD47 binding inhibitory activity was evaluated in the same manner as in 1)-6-3.

human SIRPA_V2 protein [4] = biological target: T2, human SIRPA_V2 protein; test: cell-based ELISA on 293α cells expressing FLAG-tagged SIRPA_V2; Abs 490 normalized to FLAG tag
Experimental: as §1

SIRPA_V1_IgV = biological target: T3, SIRPA_V1_IgV (human, UniProt P78324 31-149); test: SPR Biacore T200, antibody captured on anti-human IgG (Fc), SIRPA_V1_IgV as analyte (0.25 to 16 nM), 1:1 model
T3 construct: Secreted recombinant protein from FreeStyle 293F cells
T3 sequence (P78324 other isoform, or with tags, fused parts or gaps limits assumed): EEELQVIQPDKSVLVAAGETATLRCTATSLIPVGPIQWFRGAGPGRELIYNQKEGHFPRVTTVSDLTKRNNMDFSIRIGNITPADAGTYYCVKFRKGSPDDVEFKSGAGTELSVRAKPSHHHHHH
Experimental: The dissociation constants were measured by a capture method comprising capturing each antibody as a ligand to an Anti-Human IgG (Fc) antibody immobilized using Human Antibody Capture Kit (GE Healthcare Bioscience Corp.) and measuring an antigen as an analyte, using Biacore T200 (GE Healthcare Bioscience Corp.). HBS-EP+ (GE Healthcare Bioscience Corp.) was used as a running buffer, and CM5 (GE Healthcare Bioscience Corp.) was used as a sensor chip. Onto the chip, 2 μg/mL of various antibodies were added at 10 μL/min for 30 seconds, then a serially diluted solution (0.25 to 16 nM) of the human SIRPA protein as an antigen was added at a flow rate of 30 μL/min for 120 seconds, and subsequently the dissociation phase for 600 seconds was monitored. As a regenerant, 3 M magnesium chloride (GE Healthcare Bioscience Corp.) was added at a flow rate of 20 μL/min for 30 seconds. For data analysis, a binding rate constant (ka), a dissociation rate constant (kd), and a dissociation constant (KD; KD=kd/ka) were calculated using a 1:1 binding model.

human SIRPA_V1 protein [5] = biological target: T1, human SIRPA_V1 protein; test: blocking cell-based ELISA: peroxidase-labeled CD47-Fc (1 µg/mL) on 293α cells expressing SIRPA_V1
Experimental: After the culture supernatant of the human SIRPA_V1 or V2 expression vector-introduced 293 cells prepared in Example 9)-1 was removed, 50 μL per well of various anti-SIRPA antibodies or various control Human IgG diluted with 5% FBS-containing PBS to a final concentration of 0 to 10,000 ng/ml was added to each of pcDNA3.2 V5-DEST-SIRPA_V1 or V2-introduced 293α cells, immediately followed by addition of 50 µL per well of peroxidase-labeled CD47-Fc prepared with 5% FBS-containing PBS at 1 μg/mL, and the mixture was allowed to stand at 4° C. for one hour. Thereafter, the SIRPA-CD47 binding inhibitory activity was evaluated in the same manner as in 1)-6-3.

human SIRPB = biological target: T4, human SIRPB (human, UniProt O00241 30-398); test: flow cytometry on CHO-K1 cells expressing FLAG-tagged human SIRPB; PE anti-human IgG; MFI standardized to secondary antibody alone
T4 construct: whole, on cells; FLAG-tagged (pFLAG V5-DEST), on CHO-K1 cells; also called SIRPβ1; signal regulatory protein β1
T4 sequence (O00241 30-398): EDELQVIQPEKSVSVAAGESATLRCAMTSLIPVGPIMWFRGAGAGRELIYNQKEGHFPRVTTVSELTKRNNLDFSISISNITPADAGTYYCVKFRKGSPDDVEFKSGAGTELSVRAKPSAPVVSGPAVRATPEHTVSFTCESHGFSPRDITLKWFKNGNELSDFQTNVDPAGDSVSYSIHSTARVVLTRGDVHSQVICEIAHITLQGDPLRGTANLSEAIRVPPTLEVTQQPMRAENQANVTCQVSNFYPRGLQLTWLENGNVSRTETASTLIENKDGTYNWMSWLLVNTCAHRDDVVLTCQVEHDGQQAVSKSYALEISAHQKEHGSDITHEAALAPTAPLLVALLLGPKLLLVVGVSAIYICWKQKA
Experimental: SIRPβ1 (signal regulatory protein β1: the amino acid sequence thereof is published as RefSeq accession number NP_006056) and SIRPγ (signal regulatory protein γ: the amino acid sequence thereof is published as RefSeq accession number NP_061026) are molecules belonging to the SIRPA family. In the present invention, “SIRPα” may be referred to as “SIRPA,” “SIRPβ1” may be referred to as […] and “SIRPγ” may be referred to as “SIRPG.” CHO-K1 cells were prepared in a 10% FBS-containing Ham's F-12K medium at 3.3×10⁵ cells/mL and cultured overnight at 37° C. under a 5% CO₂ condition. pFLAG V5-DEST-human SIRPβ, pFLAG V5-DEST-human SIRPG, or pFLAG V5-DEST was introduced into the cells using Lipofectamine LTX (Invitrogen), and cells were cultured in a 10% FBS-containing Ham's F-12K medium at 37° C. under a 5% CO₂ condition for 24 hours. The obtained introduced cells were collected and seeded on a 96-well plate. After the culture supernatant was removed, 100 μL per well of various anti-human SIRPA antibodies or various control human IgG was added to each of various gene introduced cells at a final concentration of 0 to 10,000 ng/mL, and the mixture was allowed to stand at 4° C. for 25 minutes. After the mixture was centrifuged, the supernatant was removed, and cells were washed twice with 5% FBS-containing PBS. After the mixture was centrifuged, the supernatant was removed, 50 μL per well of a 1/400 diluted solution of PE Mouse anti-Human IgG antibody (BioLegend) was added, and the mixture was allowed to stand at 4° C. for 25 minutes. After the mixture was centrifuged, the supernatant was removed, and cells were washed twice with 5% FBS-containing PBS.
After the mixture was centrifuged, and the supernatant was removed, cells were suspended in 100 μL per well of 1× BD Stabilizing Fixative (Becton Dickinson), and the cell count was measured by flow cytometry (FACS Canto II: Becton Dickinson). For data analysis, FlowJo (TreeStar) was used. Cells were characterized by detecting forward scattered (FSC) light and side-scattered (SSC) light, and then the mean fluorescence intensity of PE was calculated. Binding of various antibodies to the family molecules was calculated by standardizing the fluorescence intensity using the mean fluorescence intensity of a sample in which the secondary antibody alone was allowed to react.

| EC50 (read off the curve) (human SIRPA_V1 protein [1]) [µg/mL] | IC50 (read off the curve) (human SIRPA_V2 protein [2]) [µg/mL] | IC50 (read off the curve) (human SIRPA_V1 protein [3]) [µg/mL] | EC50 (read off the curve) (human SIRPA_V2 protein [4]) [µg/mL] | Kd (SIRPA_V1_IgV) [nM] | IC50 (human SIRPA_V1 protein [5]) [µg/mL] | EC50 (read off the curve) (human SIRPB) [µg/mL] | Binder |
| --- | --- | --- | --- | --- | --- | --- | --- |
| ~0.04 | ~0.4 | ~0.4 | ~0.04 | – | – | – | B1 |
| ~0.05 | ~0.4 | ~0.5 | ~0.05 | – | – | – | B2 |
| ~0.04 | ~0.3 | ~0.4 | ~0.04 | – | – | – | B3 |
| – | – | – | – | 11.7 | 2.32 | ~0.04 | B4 |
